# Reference: patent US9371393B2, “Class I anti-CEA antibodies and uses thereof” (Immunomedics, Inc., priority 2009, dated 2016)
# B1: MN-15: murine Class I anti-CEA MAb, IgG1 kappa, binds A1B1 domain of CEACAM5 and CEACAM6 (antibody, V domains shown)
# VL: DIQLTQSPAIMSASPGEKVTMTCSASSRVSYIHWYQQKSGTSPKRWIYGTSTLASGVPARFSGSGSGTSYSLTISSMEAEDAATYYCQQWSYNPPTFGAGTKLELKR
# VH: EVRLVESGGGLVQGPGSLRLSCAASGFALTDYYMSWVRQSPGKTLEWLGFIANKANGHTTDYSPSVKGRFTISRDNSQTILYLQMNTLRTEDSATYYCARDMGIRWNFDVWGQGTTVTVSS
# B2: MN-15 Fab′: monovalent Fab′ fragment of murine MN-15 (antibody, V domains shown)
# VL: B1 VL
# VH: B1 VH
# How the values were obtained:
# NCA-95 (HeLa-CGM6/1) = biological target: T1, NCA-95 (HeLa-CGM6/1) (Homo sapiens, UniProt P31997); assay: Indirect flow cytometry, HeLa-CGM6/1; assay type: binding; details: antibodies at 1/50 dilution of 1 mg/ml stocks
# T1 construct: expressed in transfected cells; host or cells: HeLa (HeLa-CGM6/1)
# T1 sequence (P31997 35-320): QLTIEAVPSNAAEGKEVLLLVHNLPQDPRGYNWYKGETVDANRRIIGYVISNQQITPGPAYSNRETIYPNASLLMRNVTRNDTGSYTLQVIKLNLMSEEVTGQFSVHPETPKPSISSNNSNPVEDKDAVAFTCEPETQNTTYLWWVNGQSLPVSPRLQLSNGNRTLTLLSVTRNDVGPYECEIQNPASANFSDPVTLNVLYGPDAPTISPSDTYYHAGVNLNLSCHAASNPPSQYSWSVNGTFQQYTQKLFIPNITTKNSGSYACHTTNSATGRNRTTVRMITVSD
# Description: The reactivity of antibodies was tested by flow cytometry with a Becton-Dickinson FACSCAN®. The biotinylated second antibody was directed against mouse IgG and was detected by a streptavidin/phycoerythrin conjugate. Tests were carried out with antibodies at 1/50 dilution of 1 mg/ml stocks.
# The antibodies MN-3 and MN-15 were tested for recognition of HeLa cells transfected with cDNA coding for CEA (HeLa-CEA2), NCA-90 (HeLa-KNC6/S44) and NCA-95 (HeLa-CGM6/1). As a negative control, HeLa cells transfected with the plasmid pSV2-Neo (control HeLa cells, HeLa-NeoA) were used. In addition to the antibodies MN-3 and MN-15, three control antibodies were included: […]
# [1] = tested on: MCA38 (CEACAM5−/CEACAM6−) adhesion to HUVEC; assay: Endothelial cell adhesion assay, MCA38; assay type: cell-based, murine; details: 10 μg/mol Fab′
# Description: Percentage adhesion of various tumor cells with varying amounts of expressed CEACAM5 and CEACAM6 to HUVEC cells in the absence or presence of MN-15 Fab′, MN-3 Fab′, or Ag8 Fab′ control. Cells were labeled with 1 μCi/mL of ^3H-thymidine and added to HUVEC cultures and incubated for 30 minutes at 37° C. Samples were washed thrice with PBS to remove unattached cells. Attached tumor cells were solubilized with 0.1 N NaOH and radioactivity was measured in a B-scintillation counter. The cpm attached/total cpm added (attaching potential) was determined. Results of a typical study are presented. Cell lines used include BT-20 (CEACAM5+/CEACAM6+), MCF-7 (CEACAM5−/CEACAM6+), HT-29 (CEACAM5−/CEACAM6+), Moser (CEACAM5+/CEACAM6−), MCA38cea (CEACAM5+/CEACAM6−), and MCA38 (CEACAM5−/CEACAM6−).
# Endothelial cell adhesion assay—Human umbilical vein endothelial cells (HUVEC; Cambrex, San Diego, Calif.) were grown in collagen-coated dishes in EGM Media in a humidified atmosphere with 5% CO2 at 37° C. At passages 2 to 5, cells were plated at a density of 4×10^4 cells per well in 96-well plates 24 hours before the assay. Interleukin-1β (IL-1β, 1 ng/mol) was added 4 hours before the assay. […] Attached cells were solubilized with 0.1 N NaOH and radioactivity was measured in a β scintillation counter. The cpm attached/total cpm added (attaching potential) was determined.
# [2] = tested on: tumor cell adhesion to ECM proteins (fibronectin, vitronectin, laminin, collagen-I, collagen-IV); assay: Adhesion to extracellular matrix proteins assay, panel of six cell lines; assay type: cell-based, human
# Description: Adhesion to extracellular matrix proteins assay—The assay was done using the CYTOMATRIX™ screening kit from CHEMICON® (Kit #ECM205, Temecula, Calif.). The kit contains 96-well plates with strips coated with fibronectin, vitronectin, laminin, collagen-I, or collagen-IV. Subconfluent cell cultures were used for these studies. Cells (1×10^6 cells/mol) were seeded onto coated substrate and incubated at 37° C. for 1 hour in a CO2 incubator in PBS containing Ca^2+/Mg^2+ (200 μL per well). Adherent cells were fixed and stained. The plate was washed to remove unadhered cells and stained with 100 μL per well of MTS (Cell Titer Aq 96, PROMEGA®, Madison, Wis.) for 5 minutes at room temperature. Excess stain was removed with three PBS washes. Solubilization buffer [100 μL of a 50:50 mixture of 0.1 mol/L NaH2PO4 (pH 4.5) and 50% ethanol] was added to each well. Relative attachment was determined using absorbance readings (A540 nm-A570 nm).
# ZR75-30 cells = assay: Collagen-based invasion assay, ZR75-30; assay type: cell-based, human; details: 10% FBS chemoattractant, 72-hour incubation
# Description: Collagen-based invasion assay—The assay was done using CHEMICON® Kit (#ECM551, MILLIPORE®, Billerica, Mass.). Tumor cells at 80% confluence and were serum-starved for 18 to 24 hours before the assay was used. Cells were harvested with 5 mol of 2 mmol/L EDTA/PBS per 100-mm dish and incubated at 37° C. for 5 to 15 minutes. Cells were collected into 10 to 20 mol of quenching medium (serum-free DMEM containing 5% BSA) to inactivate trypsin/EDTA from the harvesting buffer. Cells were pelleted, resuspended in quenching medium (1×10^6 cells/mol), and appropriate antibody Fabs were added to individual cell aliquots. Cell invasion potential was determined as follows. Baseline invasion and invasion in the presence of a chemoattractant (10% FBS) were measured after a 72-hour incubation period at 37° C. in a 5% CO2 incubator. The bottom side of the collagen-coated polycarbonate membrane insert of the invasion chamber was placed in 400 μL of cell stain for 20 minutes at room temperature and washed. The dye was extracted and transferred into a 96-well microtiter plate for colorimetric measurements (A560 nm).
Molecule,binding to NCA-95 (NCA-95 (HeLa-CGM6/1)),effect on tumor cell-endothelial cell adhesion [1],effect on adhesion to fibronectin [2],reduction in cell invasion (ZR75-30 cells) [%]
B1,binds to all three antigens,,,
B2,,neither MN-3 Fab′ targeting the N domain nor MN-15 Fab′ targeting the A1B1 domain of CEACAM6 had an effect,induced a decrease in adhesion of three of six cell lines,49
